Measured values reported in publication PMC5645029 (Journal of medicinal chemistry, 2017).
Non-standard residues stand in square brackets, D forms with d.

Assays:
[1] = target: mouse melanocortin-3 receptor (mouse) (UniProt P33033)
[2] = target: mouse melanocortin-1 receptor (mouse) (UniProt Q01727)
[3] = target: mouse melanocortin-4 receptor (mouse) (UniProt P56450)
Sequence of mouse melanocortin-4 receptor (mouse) (P56450 whole entry): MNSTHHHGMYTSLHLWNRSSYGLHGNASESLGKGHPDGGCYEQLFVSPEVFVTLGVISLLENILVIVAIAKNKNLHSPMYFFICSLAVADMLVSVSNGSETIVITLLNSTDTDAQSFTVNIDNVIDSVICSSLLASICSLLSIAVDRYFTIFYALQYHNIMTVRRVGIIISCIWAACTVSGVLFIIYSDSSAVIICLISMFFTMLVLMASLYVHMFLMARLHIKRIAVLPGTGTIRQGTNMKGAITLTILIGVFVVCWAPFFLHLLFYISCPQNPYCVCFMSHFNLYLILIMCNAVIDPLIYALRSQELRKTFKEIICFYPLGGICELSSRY

Sequence of mouse melanocortin-1 receptor (mouse) (Q01727 whole entry): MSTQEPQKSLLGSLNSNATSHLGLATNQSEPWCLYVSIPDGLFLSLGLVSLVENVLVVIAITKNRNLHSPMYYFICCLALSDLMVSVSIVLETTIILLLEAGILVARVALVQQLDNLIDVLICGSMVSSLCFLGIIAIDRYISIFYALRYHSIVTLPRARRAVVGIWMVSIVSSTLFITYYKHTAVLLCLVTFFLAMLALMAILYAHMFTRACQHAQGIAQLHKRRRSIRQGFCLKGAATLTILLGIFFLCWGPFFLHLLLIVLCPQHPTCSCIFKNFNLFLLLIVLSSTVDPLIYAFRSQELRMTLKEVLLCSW
Sequence of mouse melanocortin-3 receptor (mouse) (P33033 whole entry): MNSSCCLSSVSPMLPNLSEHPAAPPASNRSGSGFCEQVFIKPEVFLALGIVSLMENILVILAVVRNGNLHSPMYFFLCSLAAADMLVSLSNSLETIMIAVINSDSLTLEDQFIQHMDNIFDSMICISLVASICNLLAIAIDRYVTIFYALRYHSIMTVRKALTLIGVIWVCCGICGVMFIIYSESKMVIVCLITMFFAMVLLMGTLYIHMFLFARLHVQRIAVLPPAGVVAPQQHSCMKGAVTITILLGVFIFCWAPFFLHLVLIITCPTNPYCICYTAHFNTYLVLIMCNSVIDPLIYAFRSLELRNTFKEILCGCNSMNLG

Molecule	agonist EC50 (cAMP AlphaScreen, HEK293 cells stably expressing the receptor) [1] [µM]	agonist EC50 (cAMP AlphaScreen, HEK293 cells stably expressing the receptor) [2] [µM]	agonist EC50 (cAMP AlphaScreen, HEK293 cells stably expressing the receptor) [3] [µM]
c[Pro-Arg-Phe-Phe-DDap-Ala-Phe-DPro] (peptide)	> 100	> 100	> 100
cyclo(PRFFAAF[dP]) [c[Pro-Arg-Phe-Phe-Ala-Ala-Phe-DPro]]	> 100	> 100	> 100
cyclo(PRFFNSF[dP]) (SMILES N=C(N)NCCC[C@@H]1NC(=O)[C@@H]2CCCN2C(=O)[C@H]2CCCN2C(=O)[C@H](Cc2ccccc2)NC(=O)[C@H](CO)NC(=O)[C@H](CC(N)=O)NC(=O)[C@H](Cc2ccccc2)NC(=O)[C@H](Cc2ccccc2)NC1=O) [c[Pro-Arg-Phe-Phe-Asn-Ser-Phe-DPro]]	> 100	> 100	> 100
cyclo(PRFFVAF[dP]) [c[Pro-Arg-Phe-Phe-Val-Ala-Phe-DPro]]	> 100	–	> 100
cyclo(PRFFNDF[dP]) (SMILES N=C(N)NCCC[C@@H]1NC(=O)[C@@H]2CCCN2C(=O)[C@H]2CCCN2C(=O)[C@H](Cc2ccccc2)NC(=O)[C@H](CC(=O)O)NC(=O)[C@H](CC(N)=O)NC(=O)[C@H](Cc2ccccc2)NC(=O)[C@H](Cc2ccccc2)NC1=O) [c[Pro-Arg-Phe-Phe-Asn-Asp-Phe-DPro]]	> 100	–	> 100
cyclo(PRFFNKF[dP]) (SMILES N=C(N)NCCC[C@@H]1NC(=O)[C@@H]2CCCN2C(=O)[C@H]2CCCN2C(=O)[C@H](Cc2ccccc2)NC(=O)[C@H](CCCCN)NC(=O)[C@H](CC(N)=O)NC(=O)[C@H](Cc2ccccc2)NC(=O)[C@H](Cc2ccccc2)NC1=O) [c[Pro-Arg-Phe-Phe-Asn-Lys-Phe-DPro]]	–	–	> 100
cyclo(PRFFNGF[dP]) (SMILES N=C(N)NCCC[C@@H]1NC(=O)[C@@H]2CCCN2C(=O)[C@H]2CCCN2C(=O)[C@H](Cc2ccccc2)NC(=O)CNC(=O)[C@H](CC(N)=O)NC(=O)[C@H](Cc2ccccc2)NC(=O)[C@H](Cc2ccccc2)NC1=O) [c[Pro-Arg-Phe-Phe-Asn-Gly-Phe-DPro]]	> 100	> 100	> 100
cyclo(PRFFSAF[dP]) [c[Pro-Arg-Phe-Phe-Ser-Ala-Phe-DPro]]	> 100	> 100	> 100

Now from value to molecule:

agonist EC50 (cAMP AlphaScreen, HEK293 cells stably expressing the receptor) [1] [µM]	agonist EC50 (cAMP AlphaScreen, HEK293 cells stably expressing the receptor) [2] [µM]	agonist EC50 (cAMP AlphaScreen, HEK293 cells stably expressing the receptor) [3] [µM]	Molecule
> 100	> 100	> 100	c[Pro-Arg-Phe-Phe-Abu-Ala-Phe-DPro] (peptide)
> 100	–	> 100	c[Pro-Arg-Phe-Phe-Dap-Ala-Phe-DPro] (peptide)
> 100	> 100	> 100	cyclo(PRFFNAA[dP]) (SMILES C[C@@H]1NC(=O)[C@H](CC(N)=O)NC(=O)[C@H](Cc2ccccc2)NC(=O)[C@H](Cc2ccccc2)NC(=O)[C@H](CCCNC(=N)N)NC(=O)[C@@H]2CCCN2C(=O)[C@H]2CCCN2C(=O)[C@H](C)NC1=O) [c[Pro-Arg-Phe-Phe-Asn-Ala-Ala-DPro]]
